This series can be described thus: label from the status in PepcDB records.
For the sequence “MEPGLRLLIQLVLEFAPVFVNILHKRSEESLTTARYQVPNLIQGFIETINNINDIDNSNKSLEQEKLWQQQLVAYQRETQAQIANQQRDTALKLPEVNKILDSWPLRLYPSQILESHHSYERKPLKVFIAPPKIHFDKFDNHVETYSEIELMLAEGLREFINENYSLHSPTRPIEFLAGAWDSKRFHSESSIKALFGMLKTEPILILESENDGDYLNFRIAYWGLTQGTYYYKTISRLPYKEIIQNSAKNRALEWKKVRDELLEIGVDVEEINEFGKDNVFNLAILEKAEKWQAQGIDISKLSLQYRVSQQDIEQLCQVLITCHCLVAAWVADIYHLGNHDIPPLLPELLPSLLKNAIDVQSLQAIASSYKQVYEALEKERLYWIPELSMQLAQSLSHLPDTSWAQAEVDYSINTWLELRQVSLQQFTSPLEAMQSVVKIEDEEYIQKLREYFTVIGDRHNLQFVEKLLEAIATLKYKRSLEYPYLTKTITGHSGKVKSVAISPDGEVIVSGCTDQTVNIWNLQTGKLIRTLTGNLGEVSSVAISPDGNFLAVGSGVHPRSNVKVWHLKTGKLLHTLLGHQKPVNVVVISPDGQILASGSNKIKIWNLQKGDGVPPTVGDRICTLWHSSAVHAIAISPDSTILASGSSDNKIRLWNPRTGDPLRTLNSHDNEVKAIAISRDGQFLFSGSADTTIKIWHLITGQILHTLTGHSGDIKSLTTSPNGQFLFSGSADTTIKIWRISTGELLHTLTGHSASVNSVAISPGGNLLASGSADQTIKIWQIDKI”, the protein production result is given as “failed”.

Regarding “MEPIMRNPEDALLDSWHQNAQAWIDAVRHGAIESRRQVTDQAILLAILGRQPERVLDLGCGEGWLLRALADRGIEAVGVDGDRTLVDAARAAGAGEVHLASYAQLAEAKVPVGKDYDLICANFALLHQDIIELLSAMRTLLVPGGALVIQTLHPWSVADGDYQDGWREESFAGFAGDWQPMPWYFRTLASWLNALDMAGLRLVSLQEPQHPQSAVPQSLLMVAERH”, the protein production entry was “failed”.

As to “MEPKPFFLCIIFLLFCSSSSEILQKQTYIVQLHPNSETAKTFASKFDWHLSFLQEAVLGVEEEEEEPSSRLLYSYGSAIEGFAAQLTESEAEILRYSPEVVAVRPDHVLQVQTTYSYKFLGLDGFGNSGVWSKSRFGQGTIIGVLDTGVWPESPSFDDTGMPSIPRKWKGICQEGESFSSSSCNRKLIGARFFIRGHRVANSPEESPNMPREYISARDSTGHGTHTASTVGGSSVSMANVLGNGAGVARGMAPGAHIAVYKVCWFNGCYSSDILAAIDVAIQDKVDVLSLSLGGFPIPLYDDTIAIGTFRAMERGISVICAAGNNGPIESSVANTAPWVSTIGAGTLDRRFPAVVRLANGKLLYGESLYPGKGIKNAGREVEVIYVTGGDKGSEFCLRGSLPREEIRGKMVICDRGVNGRSEKGEAVKEAGGVAMILANTEINQEEDSIDVHLLPATLIGYTESVLLKAYVNATVKPKARIIFGGTVIGRSRAPEVAQFSARGPSLANPSILKPDMIAPGVNIIAAWPQNLGPTGLPYDSRRVNFTVMSGTSMSCPHVSGITALIRSAYPNWSPAAIKSALMTTADLYDRQGKAIKDGNKPAGVFAIGAGHVNPQKAINPGLVYNIQPVDYITYLCTLGFTRSDILAITHKNVSCNGILRKNPGFSLNYPSIAVIFKRGKTTEMITRRVTNVGSPNSIYSVNVKAPEGIKVIVNPKRLVFKHVDQTLSYRVWFVLKKKNRGGKVASFAQGQLTWVNSHNLMQRVRSPISVTLKTN”, the protein production entry is recorded as “failed”.

For the sequence “MEPNIKVQSEDLRYIVQVVTSKIKVYDIIVDPVSVKFYFFDSDNEGIDASFDYIRRELVDKGFIPFLSRDGENFIQVTRRPKQRYFGNIVNVVLLVATILSTMYVGSQYSINFVPRGSFYELRLWAYGFLFFSAPLLLILGIHESAHFLVAKRHHVKASLPFFIPFPVGIGTFGAFISLRDPLPNRKAMTEIGAAGPIAGFLTALPLLFVADYFQGVIKPIPPYYIPFKVTFPLIYQLLGLHTNFTGPIFPMVFAVWVGMFATAMNLIPAGQLDGSHILRGVLGNRANVLSYVFLAFLFGIGFFYTGWWIIAIFVVFTGLVHPPALNDFSKISKLDIVLGIVSLAMFILTFTIVPIKPA”, the protein production result is “failed”.

“MEPNRFGDILAFVSAVKAGSFTSAAATLGVTRSAVGKSVARLEARLGVRLLHRTTRKLNVTGEGLVVFERWSQILEDLEEVDATMAQRRGKPAGILRLTAPLSFGQRHILPILNAYVTNWPEIQADVWFTDHYVDLIEEGIDVAVRIGGVKDDARILSRTIGGQQFVTCAAPGYLAKKGVPSTPADLAGHDTIFFLSGQRPMPWRLGQGDAIEVCDGPGRMNIDSSEALREAALSGFGLIHLPTYITGKDLQRGDLVEVLEAYRPPADPIRLIYPSKRHLSPRTRAFIDLLIERWRDGVPWERLEPAS”: the protein production result is reported as “failed”.

Consider “MEQHQVWAYQTKTHSVTLNSVDIPALAADDILVQNQAIGINPVDWKFIKANPINWSNGHVPGVDGAGVIVKVGAKVDSKMLGRRVAYHTSLKRHGSFAEFTVLNTDRVMTLPDNLSFERAAALPCPLLTAWQAFEKIPLTKQREVLIVGFGAVNNLLTQMLNNAGYVVDLVSASLSQALAAKRGVRHLYREPSQVTQKYFAIFDAVNSQNAAALVPSLKANGHIICIQDRIPAPIDPAFTRTISYHEIALGALHDFGDRQDWQILMQQGEALLTLIAQGKMEIAAPDIFRFEQMIEALDHSEQTKLKTVLTLNE”, for which the protein production entry is reported as “not failed”.

Consider “MEQIILDIIEFLKQFSYFGVVLALTFEFIPAEVVLPMVGYWVYEGDMNFWLAVLAGTLGGTTGPLTLYALGYYGGRPLLIKYGKYFFIKEEQIQKADDFFEKYGPVVAFVGRFVPGVRTLISVPCGKAKMNIWKFSIYTFVAMFPLTTLYVYCEMKLGPHWEKAADVVGQYMLPILVVVVIIVGGILIYKFMKKRNRSESI”, for which the protein production entry is “failed”.

As to “MEQKILSSEPRRSFSNEFKLQMVKLASQPGAXVARIAREHDINDNLLFKWLRLWQNERRISRRLPVTTSSGAGVELLPVEITPDEQKEPMAALTPLLSTPSQSTVSASSCKVEFRHGNMTLENPSPELLTVLIRELTGRGR”, the protein production result was “failed”.

Turning to “MEQLDAIRRLNVAIFDDAHIIETFERDDLLMLLARSGGTDVGFKLGYRLNEAAFYSAKGGVHPAHRRNGIARALLYDMLDVVAGRGYERFVYDTFPNKHPGMTVLGLDEGFEVIRAGYSAKYQDYRLRFAWTFDAA”, the protein production result is given as “failed”.

On to “MEQRRVTDFFARRRPGPPRIAPPKLACRTPSPARPALRAPASATSGSRKRARPPAAPGRDQARPPARRRLRLSVDEVSSPSTPEAPDIPACPSPGQKIKKSTPAAGQPPHLTSAQDQDTISELASCLQRARELGARVRALKASAQDAGESCTPEAEGRPEEPCGEKAPAYQRFHALAQPGLPGLVLPYKYQVLAEMFRSMDTIVGMLHNRSETPTFAKVQRGVQDMMRRRFEERNVGQIKTVYPASYRFRQERSVPTFKDGTRRSDYQLTIEPLLEQEADGAAPQLTASRLLQRRQIFSQKLVEHVKEHHKAFLASLSPAMVVPEDQLTRWHPRFNVDEVPDIEPAALPQPPATEKLTTAQEVLARARNLISPRMEKALSQLALRSAAPSSPGSPRPALPATPPATPPAASPSALKGVSQDLLERIRAKEAQKQLAQMTRCPEQEQRLQRLERLPELARVLRSVFVSERKPALSMEVACARMVGSCCTIMSPGEMEKHLLLLSELLPDWLSLHRIRTDTYVKLDKAADLAHITARLAHQTRAEEGL”, for which the protein production entry is “failed”.

Take “MEQSLGSKQNLGSKQNQITKPHKLVLDNRKRTNLTGIEDVVEFDTTQIVLESSMGMLVIKGADLKITRLSIEKGEADIDGSVNSVIYSQIKNYGEKGKSVLKRMFS”: the protein production entry is reported as “failed”.

As to “MEQTDITSLIPIAITLIISLTTRNVVVGLFAGVLSGVAMLNGLFTTLGPFETFGVMVKSYISPQLTDSYNAGVIVLLVFIGGFVALMEKSGGGLAFAEKVTLWVKSKFQAQTSAWLGGIIIFFSDLGTPLIVGPVFRPLFDKLKISRQKLAFIIDSTSSPVAILIPFIGWGVYIMGLIQKEFTALNVTDITDWDAFLGAIPYQFYAILAIAIVPLVALKKLDFGPMAKAEAIASKGELHASSDISKEIFTHKNAKASFVWAPLLVMGAVLVFMLAPLGFPFEKVSGSVFRSALSTAYFFAAFTLIILMAMNKVRSLSDGISVYMKGMGNMMQVAIILILAWTLSSVGKELGAAAYIAEQAQNGFPYWLVPAVSFLLAAIISFATGSSWGTFAIMMHLVIPTAITIDAPMFVCIGAVLSGGLFGDHCSPISETTILSSTGAGCDQFEHFKTQLPYALLNGGIALVSFLIAGIFDNPLIFILALIAQVTLVVTLAKLTPENMFNKSKLVAGNQLG”, the protein production result was “failed”.

With “MERHQHLLSEYQQILTLSEQMLVLATEGNWDALVDLEMTYLKAVESTANITISSCSSLMLQDLLREKLRAILDNEIEIKRLLQLRLDRLSDLVGQSTKQQAVNNTYGQFPDHALL”, the protein production entry is given as “not failed”.

As for “MERISLSFVGDVMLAGSATDTLQRYGYSYPFSATAAELRRSDLVVGNLEAPLTDGGREFRAKRFRFKASPVAAAALKRAGFSVMTLANNHMMDFGADGLSDTIHHLNRNGIAFAGAGPSIADARREASVTVRGQTVAFLAYSLTQPIEFFATEGRPGTAPGYAGHYLADIRRVRSSADHVVVSFHWGQERAALPSPYQIETAHRAIDAGADIVIGHHPHVLQGIEIYRGSPIFYSLGNFAFGSRSPSADRSIIARVTLGEGPPIVEVIPLNVLFREVRFQPAILTGRKAADVVDRLNRLSAPFSTVITSTAGSHLVAPAEANARLARRQLEHHHHHH”, the protein production entry is reported as “failed”.

For the sequence “MERKFMSLQPSISVSEMEPNGTFSNNNSRNCTIENFKREFFPIVYLIIFFWGVLGNGLSIYVFLQPYKKSTSVNVFMLNLAISDLLFISTLPFRADYYLRGSNWIFGDLACRIMSYSLYVNMYSSIYFLTVLSVVRFLAMVHPFRLLHVTSIRSAWILCGIIWILIMASSIMLLDSGSEQNGSVTSCLELNLYKIAKLQTMNYIALVVGCLLPFFTLSICYLLIIRVLLKVEVPESGLRVSHRKALTTIIITLIIFFLCFLPYHTLRTVHLTTWKVGLCKDRLHKALVITLALAAANACFNPLLYYFAGENFKDRLKSALRKGHPQKAKTKCVFPVSVWLRKETRV”, the protein production result was “failed”.

In the case of “MERKGIFIKVFSYTIIVLLLLVGVTATLFAQQFVSYFRAMEAQQTVKSYQPLVELIQNSDRLDMQEVAGLFHYNNQSFEFYIEDKEGSVLYATPNADTSNSVRPDFLYVVHRDDNISIVAQSKAGVGLLYQGLTIRGIVMIAIMVVFSLLCAYIFARQMTTPIKALADSANKMANLKEVPPPLERKDELGALAHDMHSMYIRLKETIARLEDEIAREHELEETQRYFFAAASHELKTPIAAVSVLLEGMLENIGDYKDHSKYLRECIKMMDRQGKTISEILELVSLNDGRIVPIAEPLDIGRTVAELLPDFQTLAEANNQRFVTDIPAGQIVLSDPKLIQKALSNVILNAVQNTPQGGEVRIWSEPGAEKYRLSVLNMGVHIDDTALSKLFIPFYRIDQARSRKSGRSGLGLAIVQKTLDAMSLQYALENTSDGVLFWLDLPPTSTL”, the protein production result is “failed”.

For the sequence “MERKLSNGCVASKSEELAKQQLPPPPDQDQEQPALQPPKVNGLKENQAVKHNNNNNTNNNNNKNGLVNGNAKKDELKAAEDHDTQSKEDDDPKEKVVKPKLNGNLIKNPIDKTAETQDKIAQPAPEPPLPKRPKLETPTSNEVTKANGQLVQQQLESRESEEEPQHVDE”, the protein production result was “failed”.

In the case of “MERLISHPPLMIVSDLDHTMVDHQDHENLSLLRFNSLWEYAYRRDSLLVFSTARSPVLYKELRKEKPLLTPDIIITSIGTEIAFGNSMVPDHAWVESLNSCKWNREIVLEETSKFPELTLQPKTEQRLHKVSFYIDEGKGEALTKELSQLLEKRGLDVKIIYSWGKNVDVIPRGAGKGEALEYLLKKLQAEGIFPVNTLACGDSEHDAELFSIPDVHGVMVSNSQEELLKWRSENALNNLKVIHSTERCADGIIQAIGHFNLGPDLSPRDVSEFLDRKMDNVNPGHEVVRFYLFYERLRRGEIKNYETYIASFKDSCAEKSLRDTIDELKKCYGDKRGKKFWVWVDQVLVTDTIPGKWIVKFDKWEQCEDESQCCKTTVEFTSKGGDLVWEKVKQIWSEESKVKDDNSSWIL”, the protein production result is “not failed”.
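Further: failed if final PepcDB status was selected cloned or expressed and not failed if soluble or beyond.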
